# Source: article PMC1253830
# Experiments:
# Assay in all cases: two-hybrid
# [1] = target: pGBKT7-CcLim15CT 104-345 (Coprinus cinereus)
# [2] = target: pGBKT7-CcLim15 (Coprinus cinereus Lim15/Dmc1, residues 1-345, fused to the GAL4 DNA-binding domain) (Coprinus cinereus)
# [3] = target: pGBKT7-CcLim15NT 1-104 (Coprinus cinereus)
Substance,β-galactosidase activity [1],β-galactosidase activity [2],β-galactosidase activity [3]
pGADT7-CcTopIICT 1066-1569 (domain or fragment),3.49,16.5,< 1
pGADT7-CcTopIINT 1-750 (domain or fragment),,< 1,
pGADT7-CcTopIIMD 751-1065 (domain or fragment),,< 1,
